Measured values published in article PMC9504171, “Revealing a New Family of D-2-Hydroxyglutarate Dehydrogenases in Escherichia coli and Pantoea ananatis Encoded by ydiJ” (Microorganisms, 2022).

B1: D2HGDHPa (YdiJ, P. ananatis) (Pantoea ananatis AJ13355) (protein)
chain: MIPQISQAPGLIQRVLTFLETLKAQGFTGDTATSYADRLSLSTDNSIYQLLPDAVLFPRSTADVALIARLAGEAAFSSLVFTPRGGGTGTNGQSLNQGIIVDMSRHMNRILEINTEQRWVRVEAGVVKDQLNAYLKPFGFFFSPELSTSNRATLGGMINTDASGQGSLVYGKTSDHVLGLRAVLLGGDILDTRPVPTALAENLAQTPTPEGRIYQQVLTRCREHRELILEKFPKLNRFLTGYDLRHVFSDDMQTFDLTRLLCGAEGTLAFISEARLDITPLPKVRRVVNIKYDAFDSALRNAPLMVEAQALSVETVDSKVLNLAREDIVWHSVRELITAIPDKEMLGLNIVEFAGDDAGQIDRQITQLCARLDTLMTQQQGGVIGYQLCDDLDGIERIYNMRKKAVGLLGNAKGRAKPIPFVEDTAVPPEHLADYIVEFRALLDSHGLSYGMFGHVDAGVLHVRPALDMCDPHQEMMMKQISDEVVALTARYGGLLWGEHGKGFRAQYSPAFFGETLFNELRRIKAAFDPHNRLNPGKICTPFDSEAAMMQVDATKRGSYDRQIPLQVRETWRGALECNGNGLCFNFDARSPMCPSMKITRNRIHSPKGRATLTREWLRLLAEQGADPVMLEKKLPESSLSLRALISRMRNTWYANKGEYDFSHEVKEAMSGCLACKACSTQCPIKIDVPAFRSRFLQLYHTRYLRPLSDHLVAGVESYAPLMAKAPGVFNFFLKQPWATSFSKTHIGMVDLPLLSSPTLKQQLSGHPAMNMTLEQLEALSETQRAQKVLVVQDPFTSFYEAKLVHDFIRLIEKLGYQPVLLPFSPNGKAQHVKGFLQRFARTASKTADFLNRVAKLGMPMVGIDPATVLCYRDEYHQMLGEARGDFNVLLVHEWLHQALQEREVQVTSGEAWYLFAHCTEVTALPGTPGQWQAIFSRFGAKLENINVGCCGMAGTYGHESQNLENSLGIYALSWHPQLQKLPRQRCLATGFSCRSQVKRVEGNGMRHPLQALLELI
notes: 1018 residues; calculated 113,453 Da; homotetramer ~440 kDa
B2: D2HGDHEc (YdiJ, E. coli) (Escherichia coli K-12) (protein)
chain: MIPQISQAPGVVQLVLNFLQELEQQGFTGDTATSYADRLTMSTDNSIYQLLPDAVVFPRSTADVALIARLAAQERYSSLIFTPRGGGTGTNGQALNQGIIVDMSRHMNRIIEINPEEGWVRVEAGVIKDQLNQYLKPFGYFFAPELSTSNRATLGGMINTDASGQGSLVYGKTSDHVLGVRAVLLGGDILDTQPLPVELAETLGKSNTTIGRIYNTVYQRCRQQRQLIIDNFPKLNRFLTGYDLRHVFNDEMTEFDLTRILTGSEGTLAFITEARLDITRLPKVRRLVNVKYDSFDSALRNAPFMVEARALSVETVDSKVLNLAREDIVWHSVSELITDVPDQEMLGLNIVEFAGDDEALIDERVNALCARLDELIASHQAGVIGWQVCRELAGVERIYAMRKKAVGLLGNAKGAAKPIPFAEDTCVPPEHLADYIAEFRALLDSHGLSYGMFGHVDAGVLHVRPALDMCDPQQEILMKQISDDVVALTAKYGGLLWGEHGKGFRAEYSPAFFGEELFAELRKVKAAFDPHNRLNPGKICPPEGLDAPMMKVDAVKRGTFDRQIPIAVRQQWRGAMECNGNGLCFNFDARSPMCPSMKITQNRIHSPKGRATLVREWLRLLADRGVDPLKLEQELPESGVSLRTLIARTRNSWHANKGEYDFSHEVKEAMSGCLACKACSTQCPIKIDVPEFRSRFLQLYHTRYLRPLRDHLVATVESYAPLMARAPKTFNFFINQPLVRKLSEKHIGMVDLPLLSVPSLQQQMVGHRSANMTLEQLESLNAEQKARTVLVVQDPFTSYYDAQVVADFVRLVEKLGFQPVLLPFSPNGKAQHIKGFLNRFAKTAKKTADFLNRMAKLGMPMVGVDPALVLCYRDEYKLALGEERGEFNVLLANEWLASALESQPVATVSGESWYFFGHCTEVTALPGAPAQWAAIFARFGAKLENVSVGCCGMAGTYGHEAKNHENSLGIYELSWHQAMQRLPRNRCLATGYSCRSQVKRVEGTGVRHPVQALLEIIK
notes: 1018 residues; calculated 113,248 Da; homotetramer ~440 kDa

Experiments:
purified protein [1] = substrate: O=C(O)CC[C@@H](O)C(=O)O; assay: purified protein; assay type: biochemical, Pantoea ananatis; conditions: 200 μM phenazine ethosulfate, 100 μM DCIP, 50 mM Tris-HCl pH 7.5, 25 °C
purified protein [2] = substrate: O=C(O)CC[C@@H](O)C(=O)O; assay: purified protein; assay type: biochemical, Escherichia coli; conditions: 200 μM phenazine ethosulfate, 100 μM DCIP, 50 mM Tris-HCl pH 8.0, 25 °C

Row | Protein | Km (purified protein [1]) | kcat (purified protein [1]) | kcat/Km (purified protein [1]) | Km (purified protein [2]) | kcat (purified protein [2]) | kcat/Km (purified protein [2])
1 | B1 | 208 ± 10 µM | 9.7 s⁻¹ | 50000 M⁻¹ s⁻¹ | – | – | –
2 | B2 | – | – | – | 83 ± 5 µM | 13.9 s⁻¹ | 170000 M⁻¹ s⁻¹
